Patent publication US20150118260A1
Like-named read-outs stand apart in the source and are kept apart here.

Legend:
[1] = biological target: porcine CD80 on the porcine CD80-expressing B-cell lymphoma cell line LCL13271-5E4 (porcine)
[2] = biological target: porcine CD80 on the porcine CD80-expressing B-cell lymphoma cell line LCL13271-5E4 (porcine); assay: cell-based or functional assay
[3] = biological target: porcine CD80 on the porcine CD80-expressing B-cell lymphoma cell line LCL13271-5E4 (porcine); assay: flow cytometry on LCL13271-5E4 cells, MFI against concentration of biotinylated fusion toxin, non-linear least-squares fit

Substance | Kd [1] [nM] | protein synthesis inhibition (3H-leucine incorporation) in LCL13271-5E4 cells [2] | Kd [3] [nM]
DT390-bi-pCTLA-4-Non-N-Gly-6xHis (bi-non-N-glycosylated soluble porcine CTLA-4 fusion toxin) | 4.7 |  | 
DT390-pCTLA4-Non-N-Gly-6xHis (single non-N-glycosylated soluble porcine CTLA-4 fusion toxin) | 2 | 0.33 | 
DT390-pCTLA-4-Gly-6xHis (single glycosylated soluble porcine CTLA-4 fusion toxin) |  | 0.67 | 17.3
